Measurements from PMC3183026 (Molecular Biology of the Cell, 2011).

Target: DCC (endogenous, embryonic rat cortical neurons) (rat (endogenous in E18 cortical neurons), UniProt Q63155 26-1445)
Experiment: co-IP

Sequence of DCC (endogenous, embryonic rat cortical neurons) (Q63155 26-1445): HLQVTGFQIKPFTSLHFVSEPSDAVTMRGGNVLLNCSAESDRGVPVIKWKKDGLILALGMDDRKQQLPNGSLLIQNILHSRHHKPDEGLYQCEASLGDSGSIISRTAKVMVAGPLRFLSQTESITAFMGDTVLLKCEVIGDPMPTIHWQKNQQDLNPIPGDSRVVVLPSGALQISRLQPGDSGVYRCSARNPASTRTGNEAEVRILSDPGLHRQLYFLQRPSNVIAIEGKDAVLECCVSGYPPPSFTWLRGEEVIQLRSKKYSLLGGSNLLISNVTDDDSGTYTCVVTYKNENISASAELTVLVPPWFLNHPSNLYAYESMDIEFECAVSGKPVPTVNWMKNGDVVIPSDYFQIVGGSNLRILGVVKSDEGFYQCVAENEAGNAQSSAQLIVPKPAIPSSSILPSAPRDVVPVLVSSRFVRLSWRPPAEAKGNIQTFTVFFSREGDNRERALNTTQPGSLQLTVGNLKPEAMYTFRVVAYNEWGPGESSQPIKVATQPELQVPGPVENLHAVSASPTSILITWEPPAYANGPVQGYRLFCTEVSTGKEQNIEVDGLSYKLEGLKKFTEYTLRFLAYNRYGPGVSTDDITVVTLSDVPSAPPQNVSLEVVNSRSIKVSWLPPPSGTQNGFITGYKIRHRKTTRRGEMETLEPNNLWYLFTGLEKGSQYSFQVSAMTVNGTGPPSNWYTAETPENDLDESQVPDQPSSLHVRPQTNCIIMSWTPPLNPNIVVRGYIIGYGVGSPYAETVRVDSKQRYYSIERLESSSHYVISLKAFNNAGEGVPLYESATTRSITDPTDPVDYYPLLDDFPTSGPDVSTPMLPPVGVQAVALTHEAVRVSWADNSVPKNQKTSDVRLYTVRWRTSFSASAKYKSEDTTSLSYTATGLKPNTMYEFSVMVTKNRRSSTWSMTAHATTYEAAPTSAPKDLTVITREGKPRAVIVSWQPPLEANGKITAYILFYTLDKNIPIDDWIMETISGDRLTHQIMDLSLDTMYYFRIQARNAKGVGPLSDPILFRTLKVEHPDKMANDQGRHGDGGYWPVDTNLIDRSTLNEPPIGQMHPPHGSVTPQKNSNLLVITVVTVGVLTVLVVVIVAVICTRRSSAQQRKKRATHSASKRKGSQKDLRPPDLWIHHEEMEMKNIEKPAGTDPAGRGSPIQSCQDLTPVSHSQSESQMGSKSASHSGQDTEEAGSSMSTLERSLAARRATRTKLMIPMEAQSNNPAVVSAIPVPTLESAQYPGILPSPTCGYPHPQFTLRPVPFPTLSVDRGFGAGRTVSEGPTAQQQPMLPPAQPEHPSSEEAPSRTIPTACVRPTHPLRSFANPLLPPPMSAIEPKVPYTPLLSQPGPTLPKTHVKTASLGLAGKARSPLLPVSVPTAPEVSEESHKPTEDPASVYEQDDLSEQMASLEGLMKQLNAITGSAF

B1: ezrin (endogenous, embryonic rat cortical neurons) (natural protein)
chain: MPKPINVRVTTMDAELEFAIQPNTTGKQLFDQVVKTIGLREVWYFGLQYVDNKGFPTWLKLDKKVSAQEVRKENPVQFKFRAKFYPEDVADELIQDITQKLFFLQVKEGILSDEIYCPPETAVLLGSYAVQAKFGDYNKEMHKSGYLSSERLIPQRVMDQHKLSRDQWEDRIQVWHAEHRGMLKDSAMLEYLKIAQDLEMYGINYFEIKNKKGTDLWLGVDALGLNIYEKDDKLTPKIGFPWSEIRNISFNDKKFVIKPIDKKAPDFVFYAPRLRINKRILQLCMGNHELYMRRRKPDTIEVQQMKAQAREEKHQKQLERQQLETEKKRRETVEREKEQMLREKEELMLRLQDFEQKTKRAEKELSEQIEKALQLEEERRRAQEEAERLEADRMAALRAKEELERQAQDQIKSQEQLAAELAEYTAKIALLEEARRRKEDEVEEWQHRAKEAQDDLVKTKEELHLVMTAPPPPPPPVYEPVNYHVQEGLQDEGAEPMGYSAELSSEGILDDRNEEKRITEAEKNERVQRQLLTLSNELSQARDENKRTHNDIIHNENMRQGRDKYKTLRQIRQGNTKQRIDEFEAM
- fold increase relative to unstimulated neurons: 6 fold
